Test results as given in PMC10040528, “A [4Fe-4S] cluster resides at the active center of phosphomevalonate dehydratase, a key enzyme in the archaeal modified mevalonate pathway” (Frontiers in Microbiology, 2023).
Blank lines part the entries; values can stand above or below the binder they belong to.

Experiments:
[1] = substrate: C/C(=C\C(=O)O)CCOP(=O)(O)O; assay: coupled colorimetric assay (MVA5P kinase/pyruvate kinase/pyruvate oxidase/peroxidase, resorufin), Michaelis-Menten fit; type: biochemical, Aeropyrum pernix; settings: reverse reaction (hydration of tAHMP to MVA5P), 70 mM Tris-HCl pH 7.0, 70 °C, anaerobic, reconstructed His-tagged enzyme
Source text: coupled colorimetric assay (MVA5P kinase/pyruvate kinase/pyruvate oxidase/peroxidase, resorufin), Michaelis-Menten fit on […]

[2] = target: T1, Aeropyrum pernix phosphomevalonate dehydratase (ApPMDh) large subunit Ape_2087.1, polyhistidine-tagged (Aeropyrum pernix, UniProt Q9YA51 1-402); assay: pull-down; as a1, but from a mixture of about equal amounts of cells co-expressing both subunits and cells expressing only untagged Ape_2089 (excess small subunit supplied); subunit ratio from SDS-PAGE and ImageJ; settings: partners not purified
T1 construct: large subunit Ape_2087.1 of phosphomevalonate dehydratase (type IIb aconitase X), Aeropyrum pernix; also called (His)6-Ape2087.1; large subunit of ApPMDh; source: E. coli Rosetta2 (DE3), pET-HisApPMDh, co-expressed with Ape_2089; heat-treated cell extract, Histrap FF; not shown: polyhistidine ((His)6), N-terminal, kept
T1 sequence (looked up): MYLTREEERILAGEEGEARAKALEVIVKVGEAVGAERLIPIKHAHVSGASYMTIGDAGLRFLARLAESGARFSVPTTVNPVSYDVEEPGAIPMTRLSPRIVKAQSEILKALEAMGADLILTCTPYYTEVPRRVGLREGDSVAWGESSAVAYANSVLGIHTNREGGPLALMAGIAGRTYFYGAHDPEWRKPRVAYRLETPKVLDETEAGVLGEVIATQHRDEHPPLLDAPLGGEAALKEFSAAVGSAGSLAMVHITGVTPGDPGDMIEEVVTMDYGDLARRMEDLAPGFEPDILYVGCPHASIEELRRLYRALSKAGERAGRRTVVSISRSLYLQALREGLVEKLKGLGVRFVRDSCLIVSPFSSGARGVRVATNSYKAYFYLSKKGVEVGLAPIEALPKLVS

[3] = target: T1, Aeropyrum pernix phosphomevalonate …; assay: pull-down; polyhistidine-tagged large subunit co-expressed with untagged small subunit in E. coli; heat-treated (60°C, 30 min) cell extract on Histrap FF, anaerobic; 20 mM sodium phosphate pH 7.4, 500 mM NaCl, 20 mM imidazole; eluted with 150 mM imidazole; subunit ratio from 15% SDS-PAGE and ImageJ; settings: partners not purified

B1: ApPMDh (Aeropyrum pernix phosphomevalonate dehydratase) (Aeropyrum pernix K1) (protein)
chain 1: T1 sequence (looked up)
chain 2: MEVLRYRSRPIVGGEAEGPAVVIDSLSFYGEVDPETGVTSGGKPLAGRVAAIRRSRGSTVGSYVIYALKENGVAPLAILMERAEPIVIAGCVLAGIPLYDGLPPEFFERVRDGYRVRVHSDGLVEVLGPGQP
notes: N-terminal His6 tag with HRV3C site on large subunit, small subunit untagged; co-expressed in E. coli Rosetta2(DE3); 1:1 heteromeric complex; tag kept for kinetics, cut for EPR and iron assay; Fe-S cluster reconstituted anaerobically
Km [1]: 18.3 µM | kcat [1]: 15.2 s⁻¹

stoichiometry N [2]: ~1 small subunit per large subunit | stoichiometry N [3]: 1 small subunit per large subunit
B2: Aeropyrum pernix phosphomevalonate dehydratase (ApPMDh) small subunit Ape_2089, untagged (natural protein, UniProt Q9YA49 1-132, looked up)
chain: B1 chain 2
notes: small subunit Ape_2089 of phosphomevalonate dehydratase (type IIb aconitase X), Aeropyrum pernix; also called tag-free Ape_2089; small subunit of ApPMDh; source: E. coli Rosetta2 (DE3), co-expressed from pET-HisApPMDh (and expressed alone from pET-ApPMDh-S); heat-treated cell extract
